The text below walks through data of US11253617B2, “One step 64Cu-BaBaSar-RGD2 production method” (UNIVERSITY OF SOUTHERN CALIFORNIA, priority 2017, dated 2022).

Values joined by “and” are separate entries in the source; they are usually repeats but may differ in a detail not shown here. Equal entries are not always repeated. Where two headings read alike, the source gives them in different places.

For data set [1] the following is noted: reference 24; cited from earlier work.
For data set [2], the system named is U87MG glioblastoma tumor. Conditions: cited from earlier work.
Data set [3] is described as follows: Estimated human absorbed doses (Olinda/EXM) from PET biodistribution in macaque monkey. The data set is classed as in vivo. The protocol:
(§1) The PET images at 1, 5, 10, 20, 40, 60, 120, and 180 min after injection are disclosed in FIG. 4. […] The bladder content was visualized at 10 min after injection and more and more activity was accumulated in urine bladder content. […] Gallbladder uptake was not observed during the whole scan. […] The urinary bladder had the highest uptake, with 51.37%±8.73% of injected activity at 1 h post injection. The maximum uptake for the liver, and kidneys were 37.40±6.63% ID (9 min) and 26.79±4.35% ID (0.5 min) respectively.
The mean organ doses for the human phantom were calculated with Olinda/EXM using ^64Cu-BaBaSar-RGD2 biodistribution in monkey (Table 2). The kidneys had the highest radiation-absorbed doses (108.43 μGy/MBq), followed by the bladder wall (87.07 μGy/MBq). The mean effective dose of ^64Cu-BaBaSar-RGD2 was 15.30±2.21 μSv/MBq. […] The estimated doses for […] were higher by 18% because body and organ sizes of women are smaller than those men (data not shown).
Integrin αvβ3-targeted radiopharmaceutical ^64Cu-BaBaSar-RGD2 has been successfully synthesized with the one-step kit method. The straightforward method greatly simplifies the production process and benefits the clinical application of ^64Cu-BaBaSar-RGD2. Human radiation dosimetry of ^64Cu-BaBaSar-RGD2 was estimated after intravenous administration in macaque monkey, by PET imaging and OLINDA/EXM calculations. The critical organs were kidneys and urinary bladder wall. The mean effective dose, determined with the male adult model, was […]. […] Therefore, ^64Cu-BaBaSar-RGD2 can safely be used in human scan for further evaluation of its performance as an integrin-targeting probe.

A short description of data set [4]: PET/CT biodistribution in macaque monkey. It is filed as in vivo. Conditions: for tissue uptake dose: monkey, iv, total radioactivity. The protocol:
FIG. 4: Decay-corrected anterior maximum-intensity projections of PET/CT at 1, 5, 10, 20, 40, 60, 120, and 180 min after injection of ^64Cu-BaBaSar-RGD2 in macaque monkey.
as §1

The conditions of data set [5]: in vitro and in vivo, reference 23; cited from earlier work.
Data set [6] in a line: Blood clearance from venous blood samples during PET scan. The data set is classed as in vivo, monkey. The protocol: Venous blood samples were withdrawn from monkey during the PET scan. […] At 22 h after injection, the activity in the blood decreased to 0.79±0.52% ID. Based on the percentage of injected dose in blood sample, the half life of ^64Cu-BaBaSar-RGD2 in blood pool was calculated as 12.1±4.0 min (n=3).

Data set [7] can be described thus: Vital signs after injection in macaque monkey. The data set is classed as in vivo. Conditions: 13.1-19.7 MBq/kg, during and 24-h after PET scan. The protocol:
as §1

The mark [8] stands for this setting: human phantom, Olinda/EXM, monkey biodistribution, Mean ± SD.
The mark [9] stands for this setting: male human phantom, Olinda/EXM, monkey biodistribution, Mean ± SD.

On to `OC[C@H]1OC(O)[C@H]([18F])[C@@H](O)[C@@H]1O` (stereo partly drawn) [^18F-FDG, 2-deoxy-2-[^18F]fluoro-D-glucose], for which the “Estimated dose in a whole-body PET scan” value in data set [1] was 6.23 mSv.
Turning to `N=C(N)NCCC[C@@H]1NC(=O)[C@H](CCCCNC(=O)c2ccc(CNC34CNCCNCC(NCc5ccc(C(=O)NCCCC[C@@H]6NC(=O)[C@@H](Cc7ccc(O)cc7)NC(=O)[C@H](CC(=O)O)NC(=O)CNC(=O)[C@H](CCCNC(=N)N)NC6=O)cc5)(CNCCNC3)CNCCNC4)cc2)NC(=O)[C@@H](Cc2ccc(O)cc2)NC(=O)[C@H](CC(=O)O)NC(=O)CNC1=O` [^64Cu-BaBaSar-RGD2, metal not drawn], the Tumor uptake entry in data set [2] (U87MG glioblastoma tumor bearing mice, reference 23) is “high tumor uptake”. Besides, the Normal organ uptake entry in data set [2] (mouse, in vivo) was “low normal organ uptake”. In data set [3] (925-MBq administrated into human subject), the “Effective dose for the non-voiding model” value is given as 14.2 mSv. For the same compound, the “Mean effective dose, male adult model” value in data set [3] (OLINDA/EXM, intravenous administration in macaque monkey) is reported as 15.30±2.21 Sv/MBq. For the same compound, the “Estimated doses for the female human, higher than male by” value in data set [3] (female versus male human phantom) is 18%. Further, in data set [3] (setting [8]), the “Estimated human absorbed dose, Ovaries” value is listed as 2.88 ± 0.44 μGy/MBq and the “Estimated human absorbed dose, Uterus” value is 4.16 ± 0.63 μGy/MBq. Also, in data set [3] (setting [9]), the “Effective Dose (mean)” value is given as 15.30±2.21 μSv/MBq; the “Estimated human absorbed dose, Adrenals” value is 3.34 ± 0.52 μGy/MBq; the “Estimated human absorbed dose, Brain” value is listed as 1.27 ± 0.22 μGy/MBq; the “Estimated human absorbed dose, Breasts” value was 1.34 ± 0.23 μGy/MBq. Further, in data set [3] (setting [9]), the “Estimated human absorbed dose, Gall bladder Wall” value is on record as 3.07 ± 0.49 μGy/MBq; the “Estimated human absorbed dose, Heart Wall” value is given as 4.39 ± 0.62 μGy/MBq; the “Estimated human absorbed dose, Kidneys” value is 108.43 μGy/MBq and 108.43 ± 16.41 μGy/MBq; the “Estimated human absorbed dose, LLI Wall” value is reported as 2.86 ± 0.44 μGy/MBq. In data set [3] (setting [9]), the “Estimated human absorbed dose, Liver” value is on record as 7.54 ± 1.15 μGy/MBq; the “Estimated human absorbed dose, Lungs” value is recorded as 1.67 ± 0.28 μGy/MBq; the “Estimated human absorbed dose, Muscle” value is listed as 1.88 ± 0.31 μGy/MBq; the “Estimated human absorbed dose, Osteogenic Cells” value was 7.01 ± 0.91 μGy/MBq. Further, in data set [3] (setting [9]), the “Estimated human absorbed dose, Pancreas” value is reported as 2.86 ± 0.45 μGy/MBq; the “Estimated human absorbed dose, Red Marrow” value is on record as 9.29 ± 1.02 μGy/MBq; the “Estimated human absorbed dose, Skin” value is 1.38 ± 0.24 μGy/MBq; the “Estimated human absorbed dose, Small Intestine” value was 4.53 ± 0.68 μGy/MBq. Besides, in data set [3] (setting [9]), the “Estimated human absorbed dose, Spleen” value is 6.78 ± 0.88 μGy/MBq; the “Estimated human absorbed dose, Stomach Wall” value is 2.11 ± 0.34 μGy/MBq; the “Estimated human absorbed dose, Testes” value was 2.03 ± 0.33 μGy/MBq; the “Estimated human absorbed dose, Thymus” value is 1.56 ± 0.26 μGy/MBq. Also, in data set [3] (setting [9]), the “Estimated human absorbed dose, Thyroid” value is reported as 1.39 ± 0.24 μGy/MBq; the “Estimated human absorbed dose, Total Body” value is reported as 2.76 ± 0.42 μGy/MBq; the “Estimated human absorbed dose, ULI Wall” value is on record as 2.47 ± 0.39 μGy/MBq; the “Estimated human absorbed dose, Urinary Bladder Wall” value was 87.07 μGy/MBq and 87.07 ± 12.38 μGy/MBq. Besides, the Urinary bladder uptake in data set [4] (1 h post injection, bladder not voided (anesthesia)) is on record as 51.37%±8.73%. Also, the “Activity in gallbladder, small intestine, upper and lower large intestine” value in data set [4] (3 h post injection) is listed as 8.62%±1.41%. For the same compound, in data set [4] (during the whole scan), the Gallbladder uptake result is recorded as “not observed”. Moreover, the tissue uptake dose in data set [4] (kidneys, at 0.5 min, read-out: Maximum uptake for the kidneys) was found to be 26.8 ± 4.35 %ID. Also, in data set [4] (liver, at 9 min, read-out: Maximum uptake for the liver), the tissue uptake dose was determined as 37.4 ± 6.63 %ID. In addition, in data set [5], the Stability entry was “great stability both in vitro and in vivo”. Also, the “Activity remaining in blood” value in data set [6] (3 h after injection, decay corrected) came to 2.88±0.88 % ID. For the same compound, the “Activity remaining in blood (range)” value in data set [6] (3 h after injection, range) was 2.07-3.82 % ID. The “Activity in the blood” value in data set [6] (22 h after injection) is given as 0.79±0.52 % ID. For the same compound, the “Clearance from the blood” value in data set [6] (decay corrected activity per unit of blood sample) was “cleared rapidly from the blood”. Besides, the “Effects on vital signs (blood pressure, pulse, electrocardiogram)” value in data set [7] is listed as “no observable effects on vital signs”.
